Results published in article PMC2760858.

What was measured:
hERK1-GFP (human) = hERK1-GFP (human) (UniProt P27361); experiment: FRET or BRET; acceptor photobleaching FRET in fixed HeLa cells transfected with hERK1-GFP; partner labelled with primary antibody and Cy3-conjugated secondary antibody; GFP/Cy3 pair
[1] = biological target: endogenous phospho-ERK1/2 (human (endogenous in HeLa)) (UniProt P27361); experiment: FRET or BRET; acceptor photobleaching FRET in fixed untransfected HeLa cells; endogenous phospho-ERK1/2 and partner labelled with primary antibodies and Cy3- or Cy5-conjugated secondary antibodies; Cy3/Cy5 pair
[2] = biological target: GST-hERK1 recombinant protein (human) (UniProt P27361); experiment: non-reducing SDS-PAGE after pull-down, band identified by MALDI-TOF-MS; GST-hERK1 on GSH-agarose incubated with HeLa mitochondrial extract, high stringency; electrophoresis in the absence of β-ME or DTT; band of MW ~130

In the case of “Porin 31HL (VDAC1), voltage-dependent anion channel 1 (from UniProt P21796 1-283) (natural protein)”, the mean FRET efficiency (cytoplasm) (hERK1-GFP (human)) is reported as 0.3.
“Histone H2A (from UniProt P0C0S8 1-130) (natural protein)” showed a mean FRET efficiency [1] of 0.17 and an FRET efficiency (nuclei) (hERK1-GFP (human)) of 0.3.
In the case of “Histone H4 (from UniProt P62805 1-103) (natural protein)”, the FRET efficiency (nuclei) (hERK1-GFP (human)) is reported as 0.2.
Work on “GST-hERK1 recombinant protein (from UniProt P27361 1-379) (enzyme)” yielded a stoichiometry N [2] of 2.
